Measurements taken from US8440629B2, “Cyclic receptor-associated protein (RAP) peptides” (Raptor Pharmaceuticals Inc., priority 2007, dated 2013).

Assays:
Assay in all cases: Solid phase binding assay
LRP2 CR34-36 = biological target: T1, LRP2 CR34-36 (Homo sapiens, UniProt P98164); settings: highest ligand concentrations tested
T1 construct: a CR triplet from LRP2 (CR34-36); made in house; host or cells: E. coli BL21(DE3) CodonPlus-RIPL, pET30(+)a
Experimental: (§1) All expression constructs were sequenced to verify insert sequences and the junctions with the expression vector. Each plasmid was then used to transform BL21(DE3) CodonPlus-RIPL™ cells (Stratagene). Expression of the CR proteins was induced in logarithmic growth-phase cells grown in LB supplemented with 34 μg/mL chloramphenicol, 12.5 μg/mL tetracycline and 15 μg/mL kanamycin by addition of 2 mM IPTG, followed by reduction in incubator temperature to 32° C. and incubation for 4 hours with agitation at […]. Cells were pelleted and resuspended, at 3.5% of the initial culture volume in 10 mM Tris-HCl pH 8, 100 mM NaH2PO4, 8M Urea. Resuspended cells were then frozen in liquid nitrogen, rapidly thawed to 37° C. and sonicated for 10 seconds at an amplitude setting of 60 using a Cole-Parmer CP-130 ultrasonic processor connected to a 3 mm probe. This procedure was repeated three times to effect complete lysis of the cells. Lysates were clarified by spinning twice at 10,000×g in a Sorvall RC-5 centrifuge for 20 minutes at 15° C. Ni-NTA columns (Qiagen Superflow™, 1.5 mL packed bed) were used to purify the CR proteins. Briefly, the resin was equilibrated with two column volumes of lysis buffer. The clarified lysate was then supplemented to 20 mM with imidazole and incubated with the equilibrated Ni-NTA resin overnight at 4° C. The flow-through was discarded. Columns were washed once with one column volume of lysis buffer and then three times with one column volume of TBS pH 8 supplemented with 20 mM imidazole. CR-loaded beads were then removed from the column and CR proteins eluted by incubating at room temperature for 30 minutes with one column volume of the same buffer containing 200 mM imidazole. This step was repeated once and the eluates pooled. Eluted CR protein solutions were then supplemented to 2 M urea, 10 mM CaCl2 and 5 mM DTT. Purified, denatured CR protein solutions were transferred to 3,500 MWCO Slide-A-Lyzer™ (Pierce) cassettes and sequentially dialyzed against a 200-fold excess of 50 mM Tris-HCl pH 8.5, 10 mM CaCl2, 1 mM reduced glutathione, 0.5 mM oxidized glutathione at room temperature overnight and then against TBS supplemented with 5 mM CaCl2 at 4° C. overnight. Protein concentrations were determined by Bradford assay and purity confirmed by SDS-PAGE with Coomassie Brilliant Blue staining.
(§2) Purified, refolded CR protein (1 μg) was bound to Nunc Maxisorp™ 96-well plates in TBS pH 8 supplemented with 5 mM CaCl2 (TBSC) overnight at 4° C. Wells were washed with TBSC and then blocked with TBSC containing 2% bovine serum albumin (BSA). RAP ligands were then incubated with the immobilized receptor at a range of concentrations for 2 hours in the above blocking buffer supplemented with 0.05% Tween-20 at room temperature. Control wells contained no added ligand. As an additional control, to determine whether the absence of calcium affected binding, 10 mM EGTA was included in the incubation medium for some samples. Wells were washed with TBSTC and bound ligands detected with polyclonal anti-RAP (BP41/42, 1:1,000, BioMarin). Excess primary antibody was removed and wells washed before incubation with the secondary antibody, HRP-conjugated goat anti rabbit IgG (Bio-Rad). After washing, TMB substrate solutions (Bio-Rad) were added to detect HRP. Color development was stopped with 1N HCl. Absorption at 450 nm was measured with a microplate spectrophotometer (Molecular Devices). Data were plotted and Kd values derived by non-linear regression with the assumption of single-site binding (GraphPad Prism).

LRP2 CR3536 = biological target: T2, LRP2 CR3536 (Homo sapiens, UniProt P98164); settings: highest ligand concentrations tested
T2 construct: VLDLR CR78, LRP2 CR3536, LRP2 CR34-36 and MAT CR23; made in house; host or cells: E. coli BL21(DE3) CodonPlus-RIPL, pET30(+)a
Experimental: as §1, §2

LRP6 CR1-3 = biological target: T3, LRP6 CR1-3 (Homo sapiens, UniProt O75581); settings: highest ligand concentrations tested
T3 construct: made in house; host or cells: E. coli BL21(DE3) CodonPlus-RIPL, pET30(+)a
T3 sequence (O75581 1247-1363): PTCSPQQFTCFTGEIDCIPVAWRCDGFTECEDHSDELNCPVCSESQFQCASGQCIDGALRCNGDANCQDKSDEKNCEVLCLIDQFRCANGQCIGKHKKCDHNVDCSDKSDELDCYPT

LRP6 CR12 = biological target: T4, LRP6 CR12 (Homo sapiens, UniProt O75581); settings: highest ligand concentrations tested
T4 construct: LRP6 CR12 and LRP6 CR23, amino acids 1247-1322 and 1323-1363; made in house; host or cells: E. coli BL21(DE3) CodonPlus-RIPL, pET30(+)a
T4 sequence (O75581 1247-1322): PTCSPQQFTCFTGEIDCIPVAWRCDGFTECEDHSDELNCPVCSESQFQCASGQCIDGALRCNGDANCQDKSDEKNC

LRP6 CR23 = biological target: T5, LRP6 CR23 (Homo sapiens, UniProt O75581); settings: highest ligand concentrations tested
T5 construct: the two CR pairs from LRP6 within the triplet (CR1 and 2, termed CR12, CR2 and 3, termed CR23); made in house; host or cells: E. coli BL21(DE3) CodonPlus-RIPL, pET30(+)a
T5 sequence (O75581 1286-1363 limits assumed): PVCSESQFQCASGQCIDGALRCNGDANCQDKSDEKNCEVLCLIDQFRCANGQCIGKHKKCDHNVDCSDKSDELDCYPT

MAT CR12 = biological target: T6, MAT CR12 (Homo sapiens, UniProt Q9Y5Y6); settings: separate set of experiments
T6 construct: termed MAT CR12 (ST14 CR12), amino acids 452-524; made in house; host or cells: E. coli BL21(DE3) CodonPlus-RIPL, pET30(+)a
T6 sequence (Q9Y5Y6 452-524): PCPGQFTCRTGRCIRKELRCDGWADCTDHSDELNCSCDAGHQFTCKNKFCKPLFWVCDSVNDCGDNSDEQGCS

MAT CR23 = biological target: T7, MAT CR23 (Homo sapiens, UniProt Q9Y5Y6); settings: highest ligand concentrations tested
T7 construct: made in house; host or cells: E. coli BL21(DE3) CodonPlus-RIPL, pET30(+)a
T7 sequence (Q9Y5Y6 487-566): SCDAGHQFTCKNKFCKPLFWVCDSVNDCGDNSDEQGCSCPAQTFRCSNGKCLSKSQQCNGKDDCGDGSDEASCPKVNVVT

VLDLR CR78 = biological target: T8, VLDLR CR78 (Homo sapiens, UniProt P98155); settings: highest ligand concentrations tested
T8 construct: a CR pair from VLDLR (CR78); made in house; host or cells: E. coli BL21(DE3) CodonPlus-RIPL, pET30(+)a

T2 sequence (P98164 3880-3974 limits assumed): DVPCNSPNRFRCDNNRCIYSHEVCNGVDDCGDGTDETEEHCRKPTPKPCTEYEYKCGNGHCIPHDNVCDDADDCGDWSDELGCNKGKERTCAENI
T1 sequence (P98164 3838-3974 limits assumed): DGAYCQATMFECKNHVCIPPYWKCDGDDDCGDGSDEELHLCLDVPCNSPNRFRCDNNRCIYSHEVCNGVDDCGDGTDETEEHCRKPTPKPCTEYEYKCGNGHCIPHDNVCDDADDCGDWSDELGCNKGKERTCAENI

binding relative to that for LRP1 CR3-5 (LRP2 CR34-36): less than 5% | binding relative to that for LRP1 CR3-5 (LRP2 CR3536): less than 5% | binding relative to that for LRP1 CR3-5 (LRP6 CR1-3): less than 5% | binding relative to that for LRP1 CR3-5 (LRP6 CR12): less than 5% | binding relative to that for LRP1 CR3-5 (LRP6 CR23): less than 5% | binding (in words) (MAT CR12): undetectable | binding relative to that for LRP1 CR3-5 (MAT CR23): less than 5% | binding relative to that for LRP1 CR3-5 (VLDLR CR78): less than 5%
B1: RAP d3: third domain of human RAP, amino acids 201-319 of mature RAP, bacterially expressed with hexahistidine and S-peptide tags (SEQ ID NO: 92) (protein, listed as Homo sapiens)
chain: LDRLRRVSHQGYSTEAEFEEPRVIDLWDLEQSANLTDKELEAFREELKHFEAKIEKHNHYQKQLEIAHEKLRHAESVGDGERVSRSREKHALLEGRTKELGYTVKKHLQDLSGRISRAR
modifications: hexahistidine and S-peptide tags
